Experimental data reported in paper PMC3206016, “Putting into Practice Domain-Linear Motif Interaction Predictions for Exploration of Protein Networks” (PLoS ONE, 2011).
Where two headings read alike, the source gives them in different places.

Tests used:
Assay in all cases: SPR
[1] = molecular target: 16E6L/V (C-terminal peptide of HPV16 early protein E6 with L158V) (human papilloma virus 16)
[2] = molecular target: 16E6L/V (C-terminal peptide of HPV16 early protein E6 with L158V) (human papilloma virus 16); remark: listed apart in the source
[3] = molecular target: 16E6L/V (C-terminal peptide of HPV16 early protein E6 with L158V) (human papilloma virus 16); remark: listed apart in the source
[4] = molecular target: 16E6L/V (C-terminal peptide of HPV16 early protein E6 with L158V) (human papilloma virus 16); remark: listed apart in the source

Sequence of MAGI1-3/6 (MBP fusion of the third of the six PDZ domains of MAGI1) (Q6RHR9 613-752): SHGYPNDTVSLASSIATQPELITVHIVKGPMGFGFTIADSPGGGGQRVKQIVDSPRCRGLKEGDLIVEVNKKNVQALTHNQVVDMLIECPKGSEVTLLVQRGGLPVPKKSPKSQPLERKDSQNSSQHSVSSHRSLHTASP
Sequence of SCRIB-3/4 (MBP fusion of the third of the four PDZ domains of SCRIB) (Q14160 997-1093): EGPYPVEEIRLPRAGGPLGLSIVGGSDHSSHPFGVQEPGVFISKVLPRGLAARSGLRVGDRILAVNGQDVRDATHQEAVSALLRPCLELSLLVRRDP
Sequence of MAGI1-2/6 (MBP fusion of the second of the six PDZ domains of MAGI1) (Q6RHR9 448-572): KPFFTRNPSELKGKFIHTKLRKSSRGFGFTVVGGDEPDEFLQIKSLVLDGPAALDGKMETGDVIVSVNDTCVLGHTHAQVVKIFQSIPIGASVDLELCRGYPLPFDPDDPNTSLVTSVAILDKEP
Sequence of SCRIB-34/4 (MBP fusion of the tandem of the third and fourth PDZ domains of SCRIB) (Q14160 997-1193): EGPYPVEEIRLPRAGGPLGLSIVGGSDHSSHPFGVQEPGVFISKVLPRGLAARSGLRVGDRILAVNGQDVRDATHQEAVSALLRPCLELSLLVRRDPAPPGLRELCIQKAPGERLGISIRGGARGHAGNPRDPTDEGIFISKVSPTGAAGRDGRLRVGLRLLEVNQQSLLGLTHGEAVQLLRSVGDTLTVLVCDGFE

Substance	Kd [1] [µM]	Kd [2] [µM]	Kd [3] [µM]	Kd [4] [µM]
MAGI1-2/6 (MBP fusion of the second of the six PDZ domains of MAGI1) (from UniProt Q6RHR9-1 448-572) (domain or fragment)	1	2	18	–
SCRIB-3/4 (MBP fusion of the third of the four PDZ domains of SCRIB) (from UniProt Q14160-1 997-1093) (domain or fragment)	32	18	41	–
SCRIB-34/4 (MBP fusion of the tandem of the third and fourth PDZ domains of SCRIB) (from UniProt Q14160-1 997-1193) (domain or fragment)	–	3	–	4
MAGI1-3/6 (MBP fusion of the third of the six PDZ domains of MAGI1) (from UniProt Q6RHR9-1 613-752) (domain or fragment)	202	69	76	–
